One assay concerns the target T1, PD-1-his抗原 (UniProt Q15116 25-167, limits assumed).
T1 construct: not shown: his tag
Nature of the assay: binding ELISA, PD-1-his coated, HRP anti-human IgG. (In general: In an ELISA, binding on a coated surface is turned into a signal by an enzyme label.)

Assay [1] addresses T2, PD-1-hIgGFc抗原 (UniProt Q15116 25-167, limits assumed).
T2 construct: not shown: human IgG Fc
Nature of the assay: competition ELISA, PD-1-hIgGFc coated, competitor PDL1-mIgG2aFc 0.6 ug/ml, HRP anti-mouse IgG.

Assay [2] addresses T2, PD-1-hIgGFc抗原. Put plainly: competition ELISA, PD-1-hIgGFc coated, competitor PDL2-his tag 1.0 ug/ml, HRP anti-his tag.

We go through one molecule from patent CN108299557A (HANGZHOU HANSI BIOMEDICAL CO LTD, dated 2018).

T2 sequence (Q15116 25-167 limits assumed): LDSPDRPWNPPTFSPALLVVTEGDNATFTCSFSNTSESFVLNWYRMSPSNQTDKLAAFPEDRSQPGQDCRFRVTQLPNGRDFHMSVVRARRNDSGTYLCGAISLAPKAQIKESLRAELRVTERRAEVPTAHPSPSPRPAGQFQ
T1 sequence (Q15116 25-167 limits assumed): as above

B1: 人源化抗体H8L2 (抗PD-1的IgG类抗体变体) (antibody)
heavy: EVQLVQSGGGLVQPGGSLKLSCAASGFTFSSYGMSWVRQAPGKGLDWVATISGGGRDTYYPDSVKGRFTISRDNSKNNLYLQMNSLRAEDTALYYCARQKGEAWFAYWGQGTLVTVSSASTKGPSVFPLAPCSRSTSESTAALGCLVKDYFPEPVTVSWNSGALTSGVHTFPAVLQSSGLYSLSSVVTVPSSSLGTKTYTCNVDHKPSNTKVDKRVESKYGPPCPPCPAPEFLGGPSVFLFPPKPKDTLMITRTPEVTCVVVDVSQEDPEVQFNWYVDGVEVHNAKTKPREEQFNSTYRVVSVLTPLHQDWLNGKEYKCKVSNKGLPSSIEKTISKAKGQPREPQVYTLPPSQEEMTKNQVSLTCLVKGFYPSDIAVEWESNGQPENNYKTTPPVLDSDGSFFLYSRLTVDKSRWQEGNVFSCSVMHEALHAHYTQKSLSLSLGK
light: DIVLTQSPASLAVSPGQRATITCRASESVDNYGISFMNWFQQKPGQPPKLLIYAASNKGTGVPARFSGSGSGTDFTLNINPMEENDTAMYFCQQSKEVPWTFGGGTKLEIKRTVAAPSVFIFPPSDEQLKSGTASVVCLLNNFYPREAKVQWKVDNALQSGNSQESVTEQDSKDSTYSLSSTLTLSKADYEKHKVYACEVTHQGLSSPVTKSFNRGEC
notes: ACC CCC CTG; CAC GCC CAC) confirms; The constant region looks like IgG4; also called 18A10 H8L2; H8L2突变体
For B1, the concentration giving a half-maximal response (EC50) (commonly the concentration at which the effect is half-maximal) was determined as 0.04 nM in the assay with PD-1-his抗原, 0.474 nM with PD-1-hIgGFc抗原 [1] and 1.83 nM in the assay with PD-1-hIgGFc抗原 [2].
